# Experimental data: patent publication US20250313646A1 (AUGMENT BIOLOGICS, published 2025)
# Legend:
# [1] = molecular target: T1, full-length, biotinylated, human CD20 (Acro Biosystems) (human, UniProt P11836 1-297, biotinylated (site not stated)); assay: BLI (Octet RED96e), biotinylated CD20 on biosensor, antibody at 25 nM
# T1 construct: mature; No construct limits or tags are stated for the bought reagent; also called CD20 antigen
# T1 sequence (looked up): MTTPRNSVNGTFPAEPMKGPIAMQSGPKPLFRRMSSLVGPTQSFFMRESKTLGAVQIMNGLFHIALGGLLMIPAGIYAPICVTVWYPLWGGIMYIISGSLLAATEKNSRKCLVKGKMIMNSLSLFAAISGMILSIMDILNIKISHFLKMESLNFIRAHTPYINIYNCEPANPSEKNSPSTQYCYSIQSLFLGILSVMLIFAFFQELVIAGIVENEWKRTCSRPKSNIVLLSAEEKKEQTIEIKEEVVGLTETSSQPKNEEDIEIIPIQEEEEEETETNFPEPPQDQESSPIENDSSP
# [2] = molecular target: T1, full-length, biotinylated, human CD20 …; assay: BLI (Octet RED96e), biotinylated CD20 on biosensor, antibody at 100 nM
# [3] = molecular target: T1, full-length, biotinylated, human CD20 …; assay: BLI (Octet RED96e), biotinylated CD20 on biosensor, antibody at 50 nM
binder,measurement,setting,value
wildtype Rituximab (antibody) chain 1: not shown chain 2: QIVLSQSPAILSASPGEKVTMTCRASSSVSYIHWFQQKPGSSPKPWIYATSNLASGVPVRFSGSGSGTSYSLTISRVEAEDAATYYCQQWTSNPPTFGGGTKLEIKRTVAAPSVFIFPPSDEQLKSGTASVVCLLNNFYPREAKVQWKVDNALQSGNSQESVTEQDSKDSTYSLSSTLTLSKADYEKHKVYACEVTHQGLSSPVTKSFNRGEC,Kd,[1],0.171 nM
same,Kd,[2],0.169 nM
same,Kd,[3],0.169 nM
